From the Human Domainome abundance scans (Beltran et al. 2025)
± gives the uncertainty stated by the source.

B1: Advillin, residues 785 to 819; numbered along this chain, O75366 (parent)
chain: LSEQDFVSVFGITRGQFAALPGWKQLQMKKEKGLF

Variants of: B1
Assay: abundance fitness (aPCA) (normalised: wild type 0, dead -1); higher = more abundant; growth selection in yeast, the domain comes from the species named
Conditions: Homo sapiens

Question: With LSEQDFVSVFGITRGPFAALPGWKQLQMKKEKGLF [Q16P] as the variant, how does the abundance fitness read?
Answer: Its abundance fitness is -0.355 ± 0.29.

Question: For LSEQDFVSVFGITRGCFAALPGWKQLQMKKEKGLF [Q16C], which abundance fitness is on record?
Answer: The abundance fitness was -0.43 ± 0.097.

Question: With LSEQDFVSVFGITRGGFAALPGWKQLQMKKEKGLF [Q16G] as the variant, how does the abundance fitness read?
Answer: The abundance fitness was -0.378 ± 0.069.

Question: With LSEQDFVSVFGITRGIFAALPGWKQLQMKKEKGLF [Q16I] as the variant, how does the abundance fitness read?
Answer: The abundance fitness was -0.396 ± 0.41.

Question: With LSEQDFVSVFGITRGTFAALPGWKQLQMKKEKGLF [Q16T] as the variant, how does the abundance fitness read?
Answer: The abundance fitness was -0.192 ± 0.077.

Question: With LSEQDFVSVFGITRGEFAALPGWKQLQMKKEKGLF [Q16E] as the variant, how does the abundance fitness read?
Answer: The abundance fitness was -0.053 ± 0.077.

Question: Which abundance fitness does the source give for LSEQDFVSVFGITRGMFAALPGWKQLQMKKEKGLF [Q16M] here?
Answer: Its abundance fitness is -0.279 ± 0.12.

Question: Which abundance fitness does the source give for LSEQDFVSVFGITRGWFAALPGWKQLQMKKEKGLF [Q16W] here?
Answer: The abundance fitness was -0.626 ± 0.1.

Question: Which abundance fitness does the source give for LSEQDFVSVFGITRGSFAALPGWKQLQMKKEKGLF [Q16S] here?
Answer: Its abundance fitness is -0.211 ± 0.067.

Question: With LSEQDFVSVFGITRGRFAALPGWKQLQMKKEKGLF [Q16R] as the variant, how does the abundance fitness read?
Answer: Its abundance fitness is -0.281 ± 0.056.

Question: With LSEQDFVSVFGITRGLFAALPGWKQLQMKKEKGLF [Q16L] as the variant, how does the abundance fitness read?
Answer: Its abundance fitness is -0.382 ± 0.073.

Question: For LSEQDFVSVFGITRGYFAALPGWKQLQMKKEKGLF [Q16Y], which abundance fitness is on record?
Answer: The abundance fitness was -0.252 ± 0.17.

Question: For LSEQDFVSVFGITRGVFAALPGWKQLQMKKEKGLF [Q16V], which abundance fitness is on record?
Answer: The abundance fitness was -0.422 ± 0.12.

Question: With LSEQDFVSVFGITRGHFAALPGWKQLQMKKEKGLF [Q16H] as the variant, how does the abundance fitness read?
Answer: Its abundance fitness is -0.183 ± 0.15.

Question: Which abundance fitness does the source give for LSEQDFVSVFGITRGDFAALPGWKQLQMKKEKGLF [Q16D] here?
Answer: The abundance fitness was -0.347 ± 0.2.

Question: For LSEQDFVSVFGITRGFFAALPGWKQLQMKKEKGLF [Q16F], which abundance fitness is on record?
Answer: The abundance fitness was -0.302 ± 0.13.

Question: For LSEQDFVSVFGINRGQFAALPGWKQLQMKKEKGLF [T13N], which abundance fitness is on record?
Answer: The abundance fitness was -0.26 ± 0.084.

Question: Which abundance fitness does the source give for LSEQDFVSVFGIMRGQFAALPGWKQLQMKKEKGLF [T13M] here?
Answer: The abundance fitness was -0.369 ± 0.14.

Question: Which abundance fitness does the source give for LSEQDFVSVFGIYRGQFAALPGWKQLQMKKEKGLF [T13Y] here?
Answer: The abundance fitness was -0.017 ± 0.26.

Question: For LSEQDFVSVFGIVRGQFAALPGWKQLQMKKEKGLF [T13V], which abundance fitness is on record?
Answer: Its abundance fitness is -0.53 ± 0.08.

Question: With LSEQDFVSVFGIPRGQFAALPGWKQLQMKKEKGLF [T13P] as the variant, how does the abundance fitness read?
Answer: The abundance fitness was -0.219 ± 0.11.

Question: Which abundance fitness does the source give for LSEQDFVSVFGIDRGQFAALPGWKQLQMKKEKGLF [T13D] here?
Answer: The abundance fitness was -0.265 ± 0.062.

Question: Which abundance fitness does the source give for LSEQDFVSVFGIERGQFAALPGWKQLQMKKEKGLF [T13E] here?
Answer: Its abundance fitness is -0.101 ± 0.08.

Question: With LSEQDFVSVFGIKRGQFAALPGWKQLQMKKEKGLF [T13K] as the variant, how does the abundance fitness read?
Answer: Its abundance fitness is -0.314 ± 0.086.

Question: Which abundance fitness does the source give for LSEQDFVSVFGICRGQFAALPGWKQLQMKKEKGLF [T13C] here?
Answer: The abundance fitness was -0.255 ± 0.12.

Question: Which abundance fitness does the source give for LSEQDFVSVFGIGRGQFAALPGWKQLQMKKEKGLF [T13G] here?
Answer: Its abundance fitness is -0.382 ± 0.055.

Question: With LSEQDFVSVFGIFRGQFAALPGWKQLQMKKEKGLF [T13F] as the variant, how does the abundance fitness read?
Answer: The abundance fitness was -0.368 ± 0.2.

Question: With LSEQDFVSVFGIARGQFAALPGWKQLQMKKEKGLF [T13A] as the variant, how does the abundance fitness read?
Answer: The abundance fitness was -0.397 ± 0.058.

Question: Which abundance fitness does the source give for LSEQDFVSVFGILRGQFAALPGWKQLQMKKEKGLF [T13L] here?
Answer: The abundance fitness was -0.619 ± 0.14.

Question: For LSEQDFVSVFGIQRGQFAALPGWKQLQMKKEKGLF [T13Q], which abundance fitness is on record?
Answer: Its abundance fitness is -0.871 ± 0.13.

Question: With LSEQDFVSVFGISRGQFAALPGWKQLQMKKEKGLF [T13S] as the variant, how does the abundance fitness read?
Answer: The abundance fitness was -0.199 ± 0.08.

Question: Which abundance fitness does the source give for LSEQDFVSVFGIIRGQFAALPGWKQLQMKKEKGLF [T13I] here?
Answer: The abundance fitness was -0.475 ± 0.32.

Question: Which abundance fitness does the source give for LSEQDFVSVFGITEGQFAALPGWKQLQMKKEKGLF [R14E] here?
Answer: The abundance fitness was -0.024 ± 0.082.

Question: For LSEQDFVSVFGITCGQFAALPGWKQLQMKKEKGLF [R14C], which abundance fitness is on record?
Answer: The abundance fitness was -0.095 ± 0.11.

Question: Which abundance fitness does the source give for LSEQDFVSVFGITQGQFAALPGWKQLQMKKEKGLF [R14Q] here?
Answer: The abundance fitness was -0.037 ± 0.074.

Question: For LSEQDFVSVFGITTGQFAALPGWKQLQMKKEKGLF [R14T], which abundance fitness is on record?
Answer: Its abundance fitness is -0.205 ± 0.061.

Question: With LSEQDFVSVFGITAGQFAALPGWKQLQMKKEKGLF [R14A] as the variant, how does the abundance fitness read?
Answer: Its abundance fitness is -0.121 ± 0.06.

Question: For LSEQDFVSVFGITGGQFAALPGWKQLQMKKEKGLF [R14G], which abundance fitness is on record?
Answer: Its abundance fitness is -0.317 ± 0.063.

Question: For LSEQDFVSVFGITHGQFAALPGWKQLQMKKEKGLF [R14H], which abundance fitness is on record?
Answer: Its abundance fitness is -0.262 ± 0.078.

Question: For LSEQDFVSVFGITMGQFAALPGWKQLQMKKEKGLF [R14M], which abundance fitness is on record?
Answer: Its abundance fitness is -0.024 ± 0.078.

Question: With LSEQDFVSVFGITLGQFAALPGWKQLQMKKEKGLF [R14L] as the variant, how does the abundance fitness read?
Answer: Its abundance fitness is -0.322 ± 0.079.

Question: With LSEQDFVSVFGITFGQFAALPGWKQLQMKKEKGLF [R14F] as the variant, how does the abundance fitness read?
Answer: The abundance fitness was -0.117 ± 0.13.

Question: Which abundance fitness does the source give for LSEQDFVSVFGITPGQFAALPGWKQLQMKKEKGLF [R14P] here?
Answer: Its abundance fitness is -0.116 ± 0.11.

Question: With LSEQDFVSVFGITVGQFAALPGWKQLQMKKEKGLF [R14V] as the variant, how does the abundance fitness read?
Answer: Its abundance fitness is -0.264 ± 0.079.

Question: Which abundance fitness does the source give for LSEQDFVSVFGITWGQFAALPGWKQLQMKKEKGLF [R14W] here?
Answer: Its abundance fitness is -0.349 ± 0.066.

Question: With LSEQDFVSVFGITDGQFAALPGWKQLQMKKEKGLF [R14D] as the variant, how does the abundance fitness read?
Answer: Its abundance fitness is -0.431 ± 0.071.

Question: With LSEQDFVSVFGITSGQFAALPGWKQLQMKKEKGLF [R14S] as the variant, how does the abundance fitness read?
Answer: The abundance fitness was -0.169 ± 0.058.

Question: With LSEQDFVSVFGITIGQFAALPGWKQLQMKKEKGLF [R14I] as the variant, how does the abundance fitness read?
Answer: The abundance fitness was -0.252 ± 0.11.

Question: For LSEQDFVSVFGITNGQFAALPGWKQLQMKKEKGLF [R14N], which abundance fitness is on record?
Answer: The abundance fitness was -0.611 ± 0.11.

Question: For LSEQDFVSVFGITKGQFAALPGWKQLQMKKEKGLF [R14K], which abundance fitness is on record?
Answer: The abundance fitness was 0.145 ± 0.12.

Question: With LSEQDFVSVFGITRGQFAACPGWKQLQMKKEKGLF [L20C] as the variant, how does the abundance fitness read?
Answer: The abundance fitness was -0.847 ± 0.11.

Question: With LSEQDFVSVFGITRGQFAAIPGWKQLQMKKEKGLF [L20I] as the variant, how does the abundance fitness read?
Answer: Its abundance fitness is -0.902 ± 0.31.

Question: Which abundance fitness does the source give for LSEQDFVSVFGITRGQFAAEPGWKQLQMKKEKGLF [L20E] here?
Answer: The abundance fitness was -0.404 ± 0.09.

Question: Which abundance fitness does the source give for LSEQDFVSVFGITRGQFAAFPGWKQLQMKKEKGLF [L20F] here?
Answer: Its abundance fitness is -0.832 ± 0.18.

Question: For LSEQDFVSVFGITRGQFAADPGWKQLQMKKEKGLF [L20D], which abundance fitness is on record?
Answer: The abundance fitness was -0.113 ± 0.16.

Question: With LSEQDFVSVFGITRGQFAAGPGWKQLQMKKEKGLF [L20G] as the variant, how does the abundance fitness read?
Answer: The abundance fitness was -0.408 ± 0.076.

Question: Which abundance fitness does the source give for LSEQDFVSVFGITRGQFAAKPGWKQLQMKKEKGLF [L20K] here?
Answer: Its abundance fitness is -0.639 ± 0.099.

Question: Which abundance fitness does the source give for LSEQDFVSVFGITRGQFAAHPGWKQLQMKKEKGLF [L20H] here?
Answer: Its abundance fitness is -0.487 ± 0.1.

Question: Which abundance fitness does the source give for LSEQDFVSVFGITRGQFAAAPGWKQLQMKKEKGLF [L20A] here?
Answer: The abundance fitness was -0.593 ± 0.077.

Question: Which abundance fitness does the source give for LSEQDFVSVFGITRGQFLALPGWKQLQMKKEKGLF [A18L] here?
Answer: The abundance fitness was -0.062 ± 0.078.

Question: Which abundance fitness does the source give for LSEQDFVSVFGITRGQFKALPGWKQLQMKKEKGLF [A18K] here?
Answer: The abundance fitness was 0.188 ± 0.12.

Question: For LSEQDFVSVFGITRGQFEALPGWKQLQMKKEKGLF [A18E], which abundance fitness is on record?
Answer: Its abundance fitness is 0.214 ± 0.063.

Question: For LSEQDFVSVFGITRGQFQALPGWKQLQMKKEKGLF [A18Q], which abundance fitness is on record?
Answer: The abundance fitness was -0.05 ± 0.1.

Question: With LSEQDFVSVFGITRGQFNALPGWKQLQMKKEKGLF [A18N] as the variant, how does the abundance fitness read?
Answer: Its abundance fitness is 0.154 ± 0.1.

Question: For LSEQDFVSVFGITRGQFWALPGWKQLQMKKEKGLF [A18W], which abundance fitness is on record?
Answer: Its abundance fitness is -0.358 ± 0.088.

Question: With LSEQDFVSVFGITRGQFHALPGWKQLQMKKEKGLF [A18H] as the variant, how does the abundance fitness read?
Answer: The abundance fitness was -0.362 ± 0.19.

Question: Which abundance fitness does the source give for LSEQDFVSVFGITRGQFRALPGWKQLQMKKEKGLF [A18R] here?
Answer: Its abundance fitness is -0.197 ± 0.067.

Question: With LSEQDFVSVFGITRGQFIALPGWKQLQMKKEKGLF [A18I] as the variant, how does the abundance fitness read?
Answer: The abundance fitness was -0.1 ± 0.1.

Question: Which abundance fitness does the source give for LSEQDFVSVFGITRGQFMALPGWKQLQMKKEKGLF [A18M] here?
Answer: Its abundance fitness is -0.3 ± 0.48.

Question: Which abundance fitness does the source give for LSEQDFVSVFGITRGQFGALPGWKQLQMKKEKGLF [A18G] here?
Answer: Its abundance fitness is -0.103 ± 0.059.
